Tests used:
Experiment in all cases: BLI
Conditions in all cases: both partners purified
[1] = biological target: T1, SARS-CoV spike S2 subunit (SARS-CoV, strain  (entry …, UniProt P59594))
T1 construct: source: bought: Sino Biological

[2] = biological target: T2, SARS-CoV-2 spike S2 subunit (SARS-CoV-2, Wuhan-Hu-1 reference, UniProt P0DTC2)
T2 construct: source: bought: Sino Biological

MERS spike S2 subunit = biological target: T3, MERS spike S2 subunit (MERS-CoV, strain  (entry: …, UniProt K9N5Q8))
T3 construct: source: bought: Sino Biological

[3] = biological target: SARS-CoV full-length spike protein (SARS-CoV, strain  (entry …, UniProt P59594))
[4] = biological target: RatG13 full-length spike protein (Bat coronavirus RaTG13, UniProt A0ABF7PLN6)
[5] = biological target: MERS full-length spike protein (MERS-CoV, strain  (entry: …, UniProt K9N5Q8))
Chain of MERS full-length spike protein (MERS-CoV, strain  (K9N5Q8 18-1353): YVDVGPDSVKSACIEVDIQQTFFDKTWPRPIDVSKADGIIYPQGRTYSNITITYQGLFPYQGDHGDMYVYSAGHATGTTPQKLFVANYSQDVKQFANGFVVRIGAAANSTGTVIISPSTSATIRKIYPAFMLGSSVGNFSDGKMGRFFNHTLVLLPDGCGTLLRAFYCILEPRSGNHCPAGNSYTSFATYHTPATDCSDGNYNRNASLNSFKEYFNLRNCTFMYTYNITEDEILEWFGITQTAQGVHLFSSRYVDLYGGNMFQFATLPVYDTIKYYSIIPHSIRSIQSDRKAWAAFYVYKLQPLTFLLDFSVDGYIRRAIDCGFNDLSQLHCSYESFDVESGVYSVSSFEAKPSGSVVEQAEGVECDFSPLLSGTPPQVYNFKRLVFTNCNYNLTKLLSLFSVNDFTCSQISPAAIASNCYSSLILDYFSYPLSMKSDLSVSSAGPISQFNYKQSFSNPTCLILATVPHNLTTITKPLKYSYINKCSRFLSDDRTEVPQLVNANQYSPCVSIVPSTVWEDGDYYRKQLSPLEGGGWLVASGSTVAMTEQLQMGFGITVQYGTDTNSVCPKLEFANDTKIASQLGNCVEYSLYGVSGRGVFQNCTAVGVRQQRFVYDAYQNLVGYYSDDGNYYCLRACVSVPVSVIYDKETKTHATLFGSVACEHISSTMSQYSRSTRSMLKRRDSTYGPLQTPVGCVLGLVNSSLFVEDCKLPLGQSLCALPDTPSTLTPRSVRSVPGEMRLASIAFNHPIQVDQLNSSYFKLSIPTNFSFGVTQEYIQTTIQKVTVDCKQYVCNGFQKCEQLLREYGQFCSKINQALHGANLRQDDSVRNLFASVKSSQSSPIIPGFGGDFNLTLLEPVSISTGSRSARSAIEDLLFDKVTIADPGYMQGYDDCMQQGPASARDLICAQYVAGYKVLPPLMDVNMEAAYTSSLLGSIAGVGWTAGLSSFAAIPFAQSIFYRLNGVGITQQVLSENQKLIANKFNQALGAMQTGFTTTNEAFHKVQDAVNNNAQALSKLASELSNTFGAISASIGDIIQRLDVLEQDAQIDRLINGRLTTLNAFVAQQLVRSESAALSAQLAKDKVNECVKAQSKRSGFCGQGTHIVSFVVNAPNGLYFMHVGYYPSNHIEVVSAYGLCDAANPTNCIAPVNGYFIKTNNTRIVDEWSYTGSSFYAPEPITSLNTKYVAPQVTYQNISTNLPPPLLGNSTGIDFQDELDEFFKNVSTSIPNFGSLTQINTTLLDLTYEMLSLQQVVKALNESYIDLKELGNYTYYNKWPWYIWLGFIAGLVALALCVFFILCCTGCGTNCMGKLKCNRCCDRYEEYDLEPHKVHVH

[6] = biological target: T4, HKU-1 full-length spike protein (HCoV-HKU1, UniProt Q0ZME7)
T4 construct: also called HKU1 SP; HCoV-HKU1 full-length SP; source: bought: Sino Biological
T4 sequence (Q0ZME7 13-1351): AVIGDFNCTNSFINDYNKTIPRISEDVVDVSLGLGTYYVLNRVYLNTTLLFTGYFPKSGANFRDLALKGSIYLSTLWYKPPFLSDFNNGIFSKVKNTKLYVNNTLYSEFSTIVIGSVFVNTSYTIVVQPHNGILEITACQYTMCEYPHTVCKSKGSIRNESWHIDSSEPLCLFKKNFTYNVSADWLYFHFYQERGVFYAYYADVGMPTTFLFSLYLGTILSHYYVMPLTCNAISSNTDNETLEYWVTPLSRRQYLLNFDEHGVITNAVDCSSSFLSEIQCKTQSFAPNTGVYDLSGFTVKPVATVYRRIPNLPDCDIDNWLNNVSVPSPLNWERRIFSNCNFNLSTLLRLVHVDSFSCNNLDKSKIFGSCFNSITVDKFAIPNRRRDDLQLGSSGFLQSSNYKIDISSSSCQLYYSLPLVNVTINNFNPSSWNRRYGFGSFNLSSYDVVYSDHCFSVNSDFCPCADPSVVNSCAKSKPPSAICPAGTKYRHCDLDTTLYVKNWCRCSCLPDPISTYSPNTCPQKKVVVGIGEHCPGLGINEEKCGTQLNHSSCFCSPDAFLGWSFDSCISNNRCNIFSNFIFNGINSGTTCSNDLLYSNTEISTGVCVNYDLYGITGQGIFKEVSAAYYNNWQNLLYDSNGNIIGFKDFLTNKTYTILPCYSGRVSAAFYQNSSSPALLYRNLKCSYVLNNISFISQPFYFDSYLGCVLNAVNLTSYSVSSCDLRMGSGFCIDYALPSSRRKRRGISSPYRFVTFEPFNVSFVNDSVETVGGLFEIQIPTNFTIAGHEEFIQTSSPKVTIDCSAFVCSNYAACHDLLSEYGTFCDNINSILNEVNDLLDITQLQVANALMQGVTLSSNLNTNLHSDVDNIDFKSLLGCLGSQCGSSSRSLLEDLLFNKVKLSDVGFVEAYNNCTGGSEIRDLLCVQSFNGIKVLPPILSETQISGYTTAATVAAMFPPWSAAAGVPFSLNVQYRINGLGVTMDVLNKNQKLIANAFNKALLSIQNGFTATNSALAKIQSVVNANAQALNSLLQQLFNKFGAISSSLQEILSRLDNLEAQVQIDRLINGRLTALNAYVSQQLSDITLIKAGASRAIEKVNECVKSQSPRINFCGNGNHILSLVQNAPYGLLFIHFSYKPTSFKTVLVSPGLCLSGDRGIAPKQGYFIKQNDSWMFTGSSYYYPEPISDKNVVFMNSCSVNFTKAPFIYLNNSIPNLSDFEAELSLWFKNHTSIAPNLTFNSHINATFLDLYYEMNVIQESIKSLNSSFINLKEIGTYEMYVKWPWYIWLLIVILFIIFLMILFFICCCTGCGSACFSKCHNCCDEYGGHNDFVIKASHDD

[7] = biological target: T5, OC-43 full-length spike protein (HCoV-OC43, UniProt P36334)
T5 construct: source: bought: Sino Biological
T5 sequence (P36334 14-1353): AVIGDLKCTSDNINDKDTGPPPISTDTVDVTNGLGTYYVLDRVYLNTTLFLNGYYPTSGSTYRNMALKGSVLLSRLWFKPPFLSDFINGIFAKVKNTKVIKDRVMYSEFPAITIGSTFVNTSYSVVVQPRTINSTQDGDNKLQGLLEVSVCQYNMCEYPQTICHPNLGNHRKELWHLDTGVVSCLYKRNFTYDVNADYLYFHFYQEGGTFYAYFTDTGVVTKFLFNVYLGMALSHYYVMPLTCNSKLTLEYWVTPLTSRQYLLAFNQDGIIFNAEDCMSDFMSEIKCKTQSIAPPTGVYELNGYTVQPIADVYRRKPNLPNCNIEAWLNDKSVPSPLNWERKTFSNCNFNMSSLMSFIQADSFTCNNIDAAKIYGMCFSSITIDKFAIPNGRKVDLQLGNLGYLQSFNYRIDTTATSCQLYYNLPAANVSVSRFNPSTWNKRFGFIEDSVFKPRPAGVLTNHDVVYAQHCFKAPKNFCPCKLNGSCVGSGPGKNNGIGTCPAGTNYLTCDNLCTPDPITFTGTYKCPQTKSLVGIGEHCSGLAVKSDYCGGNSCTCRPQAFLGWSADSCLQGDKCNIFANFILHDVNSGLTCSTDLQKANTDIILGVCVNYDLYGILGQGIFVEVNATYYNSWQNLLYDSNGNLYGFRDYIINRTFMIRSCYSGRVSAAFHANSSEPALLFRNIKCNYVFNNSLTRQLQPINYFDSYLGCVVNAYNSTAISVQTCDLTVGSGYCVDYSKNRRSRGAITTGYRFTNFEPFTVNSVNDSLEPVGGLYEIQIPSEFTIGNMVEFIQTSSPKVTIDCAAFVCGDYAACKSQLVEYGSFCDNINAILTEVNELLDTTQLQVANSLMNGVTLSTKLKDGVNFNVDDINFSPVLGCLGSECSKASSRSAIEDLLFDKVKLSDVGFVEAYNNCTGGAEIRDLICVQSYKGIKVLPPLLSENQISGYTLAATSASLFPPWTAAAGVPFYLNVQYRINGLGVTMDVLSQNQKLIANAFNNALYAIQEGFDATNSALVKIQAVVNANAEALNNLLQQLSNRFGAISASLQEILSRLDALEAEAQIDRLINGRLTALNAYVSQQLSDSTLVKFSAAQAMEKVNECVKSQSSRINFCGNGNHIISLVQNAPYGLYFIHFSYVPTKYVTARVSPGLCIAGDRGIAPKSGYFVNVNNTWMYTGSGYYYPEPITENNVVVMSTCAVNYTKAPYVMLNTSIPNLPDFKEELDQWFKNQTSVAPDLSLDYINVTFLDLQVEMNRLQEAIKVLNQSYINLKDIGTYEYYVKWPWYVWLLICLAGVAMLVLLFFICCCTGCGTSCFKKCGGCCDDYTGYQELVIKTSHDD

Measured: binding result

B1: mAb 1871 IgG1 (wild-type human IgG1 Fc) (antibody, V domains shown)
VH: EVQLVESGGGLVKPGGSLRLSCVASGFSFSIYSMNWVRQAPGKGLEWVSYISSSSSYKYYADSVKGRFSVSRDNAKNSLYLQLNGLRAEDTAVYYCARDGYCPKGVCTYYGMDVWGQGTTVTVSA
VL: EIVMTQSPATLSVSPGERVTLSCRASQSVRSRLAWFQQKPGQAPRLLIYDASIRATGIPARFSGSGSGTEFTLIISSLQSEDFAVYYCQQYDNWPPAYTFGQGTKLEIK
notes: also called ADPT01871; source: HEK-293F, transiently transfected, purified (protein A, SEC Superdex200)
binds: all assays above
